Results on one molecule are retold here after patent US20230357354A1, “CD38-BINDING CD31 PEPTIDES AND USES THEREOF” (ENCEFA, priority 2020, published 2023).

This assay has as its system dopaminergic (TH^+) neurons in midbrain cultures. The assay can be described thus: MPP+ intoxication model: DA (TH+) cell survival in midbrain cultures. Format: cell-based, Wistar rat. The procedure: Animals were treated in accordance with the Guide for the Care and Use of Laboratory Animals (National Research Council, 1996), European Directive 86/609, and the guidelines of the local institutional animal care and use committee. Cultures were prepared from the ventral mesencephalon of gestational age 15.5 Wistar rat embryos (Janvier Breeding Center, Le Genest St Isle, France). Dissociated cells in suspension obtained by mechanical trituration of midbrain tissue pieces were seeded at a density of 1.2-1.5×10^5 cells/cm^2 onto tissue culture supports precoated with 1 mg/mL polyethylenimine diluted in borate buffer pH 8.3 as described (Michel et al., 1997. J Neurochem. 69(4):1499-507). The cultures were then maintained in N5 medium supplemented with 5 mM glucose, 5 % horse serum, and 0.5 % fetal calf serum, except for the first 3 DIV, when the concentration of fetal calf serum was 2.5% to favor initial maturation of the cultures (Guerreiro et al., 2008. Mol Pharmacol. 74(4):980-9). They were fed daily by replacing 70% of the medium. Routinely, mesencephalic cultures were established on Nunc 24-well culture plates (Thermofischer Scientific, Rochester, NY). Note that these cultures contain tyrosine hydroxylase (TH)^+ neurons that were exclusively dopaminergic (Traver et al., 2006. Mol Pharmacol. 70(1):30-40). […]

B1: murine sCD31: murine soluble CD31 (extracellular domain of CD31) having SEQ ID NO: 18, used in Example 1 (protein, listed as Mus musculus)
chain: MLLALGLTLVLYASLQAEENSFTINSIHMESLPSWEVMNGQQLTLECLVDISTTSKSRSQHRVLFYKDDAMVYNVTSREHTESYVIPQARVFHSGKYKCTVMLNNKEKTTIEYEVKVHGVSKPKVTLDKKEVTEGGVVTVNCSLQEEKPPIFFKIEKLEVGTKFVKRRIDKTSNENFVLMEFPIEAQDHVLVFRCQAGILSGFKLQESEPIRSEYVTVQESFSTPKFEIKPPGMIIEGDQLHIRCIVQVTHLVQEFTEIIIQKDKAIVATSKQSSEAVYSVMAMVEYSGHYTCKVESNRISKASSIMVNITELFPKPKLEFSSSRLDQGELLDLSCSVSGTPVANFTIQKEETVLSQYQNFSKIAEESDSGEYSCTAGIGKVVKRSGLVPIQVCEMLSKPSIFHDAKSEIIKGHAIGISCQSENGTAPITYHLMKAKSDFQTLEVTSNDPATFTDKPTRDMEYQCRADNCHSHPAVFSEILRVRVIAPVDEVVISILSSNEVQSGSEMVLRCSVKEGTSPITFQFYKEKEDRPFHQAVVNDTQAFWHNKQASKKQEGQYYCTASNRASSMRTSPRSSTLAVRVFL
modifications: Murine sCD31
For the molecule B1, where the note is “3 µM MPP^+ between 5 and 7 DIV”, the “EC50 of prevention of MPP^+-induced DA cell loss” value came out at 0.036 µg/mL. Further, the “neuroprotective effect against MPP^+-induced DA cell death” value (MPP^+ 3 µM between 5 and 7 DIV, HB7 1 µg/mL) is listed as “neuroprotective”.
